Results as given in patent US20230082465A1 (Hoffmann-La Roche, published 2023).

What was measured:
Fibrinogen Fragment D = target: T1, Fibrinogen Fragment D (human, UniProt P02671 124-216; P02675 164-491; P02679 89-437, limits assumed); assay: BLI Octet Red96e, biotinylated antibody on streptavidin tips; KD grade + = >=10^-8 M
T1 construct: domain: Fibrinogen Fragment D; Made in-house by digesting purified human fibrinogen with plasmin, then purified by SEC; also called fragment D from fibrinogen; D (Fibrinogen)
T1 sequence (looked up) 1: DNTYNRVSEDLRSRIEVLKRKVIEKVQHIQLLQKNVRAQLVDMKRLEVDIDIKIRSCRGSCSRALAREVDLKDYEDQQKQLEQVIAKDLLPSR
T1 sequence (looked up) 2: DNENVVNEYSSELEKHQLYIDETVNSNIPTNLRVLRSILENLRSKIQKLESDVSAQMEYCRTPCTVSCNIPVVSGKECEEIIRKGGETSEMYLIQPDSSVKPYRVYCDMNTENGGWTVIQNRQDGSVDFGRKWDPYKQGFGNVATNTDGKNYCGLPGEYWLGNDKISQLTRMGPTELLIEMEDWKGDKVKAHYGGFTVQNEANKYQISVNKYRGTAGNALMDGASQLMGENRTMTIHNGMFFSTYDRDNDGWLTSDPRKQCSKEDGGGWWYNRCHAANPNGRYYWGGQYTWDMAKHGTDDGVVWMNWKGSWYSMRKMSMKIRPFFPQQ
T1 sequence (looked up) 3: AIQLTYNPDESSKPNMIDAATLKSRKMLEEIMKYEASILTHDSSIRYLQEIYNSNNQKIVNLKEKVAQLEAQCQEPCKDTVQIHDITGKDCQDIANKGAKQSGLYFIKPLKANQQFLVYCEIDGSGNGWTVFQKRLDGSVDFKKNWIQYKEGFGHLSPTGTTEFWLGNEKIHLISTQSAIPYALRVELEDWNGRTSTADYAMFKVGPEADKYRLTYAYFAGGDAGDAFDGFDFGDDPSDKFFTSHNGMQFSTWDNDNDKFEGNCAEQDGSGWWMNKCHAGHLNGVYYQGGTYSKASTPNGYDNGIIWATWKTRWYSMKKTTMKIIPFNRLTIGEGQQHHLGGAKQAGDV
Protocol: (§1) The same set of mAbs were subjected to binding studies with fibrinogen, D-Dimer, and purified fibrin and fibrinogen fragments (see Table 2) using the BLI Octet Red96e system from Sartorius. KD was measured by loading biotinylated antibody samples on streptavidin BLI tips and introducing serial dilutions of prepared fragments. […] The experiments were conducted at room temperature and pressure.

Fibrinogen Fragment X = target: T2, Fibrinogen Fragment X (human, UniProt P02671 20-238; P02675 73-491; P02679 27-437, limits assumed); assay: as above
T2 construct: domain: Fibrinogen Fragment X; Made in-house by digesting purified human fibrinogen with plasmin, then purified by SEC; also called X (Fibrinogen)
T2 sequence (looked up) 1: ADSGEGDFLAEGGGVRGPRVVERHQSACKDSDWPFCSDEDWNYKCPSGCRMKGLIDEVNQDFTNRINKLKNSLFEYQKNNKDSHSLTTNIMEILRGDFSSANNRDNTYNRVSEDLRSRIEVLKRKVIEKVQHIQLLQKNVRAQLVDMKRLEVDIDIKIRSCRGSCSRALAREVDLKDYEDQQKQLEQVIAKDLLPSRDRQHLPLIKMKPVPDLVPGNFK
T2 sequence (looked up) 2: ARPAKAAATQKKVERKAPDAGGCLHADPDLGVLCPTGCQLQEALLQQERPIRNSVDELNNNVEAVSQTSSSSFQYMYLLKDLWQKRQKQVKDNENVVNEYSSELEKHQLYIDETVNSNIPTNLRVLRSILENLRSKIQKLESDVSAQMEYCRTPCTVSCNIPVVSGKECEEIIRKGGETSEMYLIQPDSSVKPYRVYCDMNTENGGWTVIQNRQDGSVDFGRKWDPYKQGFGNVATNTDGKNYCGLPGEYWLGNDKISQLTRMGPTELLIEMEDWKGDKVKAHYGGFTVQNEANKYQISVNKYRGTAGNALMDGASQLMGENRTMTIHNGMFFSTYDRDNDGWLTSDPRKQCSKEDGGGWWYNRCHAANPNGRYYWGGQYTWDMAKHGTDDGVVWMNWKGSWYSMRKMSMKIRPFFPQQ
T2 sequence (looked up) 3: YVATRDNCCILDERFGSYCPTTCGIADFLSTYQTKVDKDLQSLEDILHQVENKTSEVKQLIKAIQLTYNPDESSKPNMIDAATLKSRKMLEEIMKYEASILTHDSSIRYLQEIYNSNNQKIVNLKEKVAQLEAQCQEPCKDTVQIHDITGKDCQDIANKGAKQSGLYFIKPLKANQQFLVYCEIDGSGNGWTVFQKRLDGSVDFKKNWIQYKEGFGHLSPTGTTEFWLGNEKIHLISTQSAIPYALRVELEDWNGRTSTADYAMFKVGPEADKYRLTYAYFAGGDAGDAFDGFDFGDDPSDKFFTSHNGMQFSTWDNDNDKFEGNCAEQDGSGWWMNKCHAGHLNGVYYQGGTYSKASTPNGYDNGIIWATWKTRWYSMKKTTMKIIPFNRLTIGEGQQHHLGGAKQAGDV
Protocol: as §1

Fibrinogen Fragment Y = target: T3, Fibrinogen Fragment Y (human, UniProt P02671 20-225; P02675 73-491; P02679 27-437, limits assumed); assay: as above
T3 construct: domain: Fibrinogen Fragment Y; Made in-house by digesting purified human fibrinogen with plasmin, then purified by SEC; also called Y (Fibrinogen)
T3 sequence (looked up) 1: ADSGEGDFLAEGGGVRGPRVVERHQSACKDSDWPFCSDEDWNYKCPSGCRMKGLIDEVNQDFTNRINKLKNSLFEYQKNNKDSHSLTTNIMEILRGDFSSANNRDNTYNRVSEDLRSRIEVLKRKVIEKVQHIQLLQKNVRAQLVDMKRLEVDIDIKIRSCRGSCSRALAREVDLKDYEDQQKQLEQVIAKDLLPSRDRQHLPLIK
T3 sequence (looked up) 2: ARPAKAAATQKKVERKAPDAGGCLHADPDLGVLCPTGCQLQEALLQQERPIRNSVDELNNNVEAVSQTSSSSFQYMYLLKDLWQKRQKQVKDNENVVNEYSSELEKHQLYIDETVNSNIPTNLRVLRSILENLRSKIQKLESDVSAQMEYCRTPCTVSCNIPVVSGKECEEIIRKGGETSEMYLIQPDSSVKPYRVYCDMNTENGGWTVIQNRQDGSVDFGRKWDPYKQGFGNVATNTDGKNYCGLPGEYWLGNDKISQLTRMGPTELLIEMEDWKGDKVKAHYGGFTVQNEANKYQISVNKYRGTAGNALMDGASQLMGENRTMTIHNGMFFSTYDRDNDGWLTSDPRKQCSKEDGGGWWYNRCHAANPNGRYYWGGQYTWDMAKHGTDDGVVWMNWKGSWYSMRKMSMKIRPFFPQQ
T3 sequence (looked up) 3: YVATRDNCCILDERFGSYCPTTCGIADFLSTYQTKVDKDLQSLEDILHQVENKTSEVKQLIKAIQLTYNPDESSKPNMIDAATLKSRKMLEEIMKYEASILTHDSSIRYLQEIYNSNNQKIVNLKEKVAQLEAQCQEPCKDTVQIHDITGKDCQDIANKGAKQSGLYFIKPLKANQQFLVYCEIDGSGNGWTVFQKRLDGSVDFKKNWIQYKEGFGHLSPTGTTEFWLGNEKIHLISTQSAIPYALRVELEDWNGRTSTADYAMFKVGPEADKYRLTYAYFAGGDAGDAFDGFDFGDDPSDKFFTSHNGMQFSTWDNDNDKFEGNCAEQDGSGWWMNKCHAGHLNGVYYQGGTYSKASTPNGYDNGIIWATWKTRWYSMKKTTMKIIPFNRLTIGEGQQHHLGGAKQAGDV
Protocol: as §1

Fragment E from fibrin = target: T4, Fragment E from fibrin (UniProt P02671 36-97; P02675 84-152; P02679 27-88, limits assumed); assay: BLI Octet Red96e, biotinylated antibody on streptavidin tips
T4 construct: domain: Fragment E from fibrin; also called E (Fibrin)
T4 sequence (looked up) 1: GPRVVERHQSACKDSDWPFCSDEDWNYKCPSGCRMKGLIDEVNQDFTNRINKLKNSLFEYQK
T4 sequence (looked up) 2: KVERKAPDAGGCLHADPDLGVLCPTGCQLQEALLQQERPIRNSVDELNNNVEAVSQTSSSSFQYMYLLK
T4 sequence (looked up) 3: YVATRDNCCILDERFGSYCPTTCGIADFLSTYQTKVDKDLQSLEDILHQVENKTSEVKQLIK

[1] = target: T5, Fragment E from fibrinogen (UniProt P02671 20-97; P02675 84-152; P02679 27-79, limits assumed); assay: as above
T5 construct: domain: Fragment E from fibrinogen; also called E (Fibrinogen)
T5 sequence (looked up) 1: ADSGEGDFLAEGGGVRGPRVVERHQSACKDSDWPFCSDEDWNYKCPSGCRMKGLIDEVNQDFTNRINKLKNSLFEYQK
T5 sequence (looked up) 2: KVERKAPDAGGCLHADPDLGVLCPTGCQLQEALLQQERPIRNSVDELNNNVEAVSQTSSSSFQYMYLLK
T5 sequence (looked up) 3: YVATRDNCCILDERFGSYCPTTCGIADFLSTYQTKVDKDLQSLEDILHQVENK

Fragment E = target: T6, Fragment E (human, UniProt P02671 20-97; P02675 84-152; P02679 27-79, limits assumed); assay: BLI Octet, Example 4, FIG. 5
T6 construct: domain: Fragment E
T6 sequence (looked up) 1: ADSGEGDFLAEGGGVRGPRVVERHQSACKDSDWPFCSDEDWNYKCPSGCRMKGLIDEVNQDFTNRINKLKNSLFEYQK
T6 sequence (looked up) 2: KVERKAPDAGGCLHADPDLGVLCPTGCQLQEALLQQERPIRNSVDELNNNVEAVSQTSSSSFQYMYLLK
T6 sequence (looked up) 3: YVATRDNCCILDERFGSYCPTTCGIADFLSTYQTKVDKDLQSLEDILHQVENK

B1: recombinant antibody #12 (antibody, V domains shown)
VH: QVQLQQPGAEVVRPGASVKLSCKASGYSFTSYWIHWLKQGPHQGLEWIGRIDPDDSETHYNQKFKDKALLTVDKSSSTAYMQLRSLTSEDSAVYYCARTNWDAWFAYWGQGTLVTVSA
VL: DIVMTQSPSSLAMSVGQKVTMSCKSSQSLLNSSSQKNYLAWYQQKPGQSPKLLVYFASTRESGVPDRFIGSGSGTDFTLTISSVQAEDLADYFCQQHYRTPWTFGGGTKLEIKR
notes: The heavy chain is truncated after the murine IgG2a hinge and has no Fc; also called Ab#12; Ab#12 (Grifols)
KD (Fibrinogen Fragment D): ≥ 10 nM | KD (Fibrinogen Fragment X): ≥ 10 nM | KD (Fibrinogen Fragment Y): ≥ 10 nM | binding result (Fragment E from fibrin): no binding | binding result [1]: no binding | binding result (Fragment E): no binding
